Here are results for 3 proteins from PMC7955032, “The amyloid structure of mouse RIPK3 (receptor interacting protein kinase 3) in cell necroptosis” (Nature Communications, 2021).

Data set [1] deals with the molecule itself. Briefly: solid-state NMR; MAS SSNMR of isotope-labelled fibrils, 700 MHz, 303 K, 15 kHz; structure calculated with Xplor-NIH for 5 copies of residues 441-460; intermolecular contacts from [2-13C]-glycerol labelled sample and from a 1:1 mix of 15N- and 13C-labelled protein.
Data set [2] concerns the molecule itself. In words: thioflavin T fluorescence of fibril growth; 2 mM protein in 6 M GudHCl diluted to 20 µM in 10 mM PB buffer pH 7.4, 50 µM ThT, room temperature, about 4 h.

B1: mouse RIPK3 409-486 Q449D (domain or fragment, UniProt Q9QZL0 409-486, looked up)
chain: GPHPQRNQGDGRHGTPWYPWTPPNPMTGPPALVFNNCSEVDIGNYNSLVAPPRTTASSSAKYDQAQFGRGRGWQPFHK
notes: RIPK3, mouse, residues 409-486, same construction as the SSNMR sample, with Q449D; Same construct as m1 with one substitution; source: E. coli Transetta (DE3), purified (Ni-NTA, reverse phase HPLC)
With B1, the binding result in data set [1] is on record as “binds”.

B2: mouse RIPK3 409-486 L456D (domain or fragment, UniProt Q9QZL0 409-486, looked up)
chain: GPHPQRNQGDGRHGTPWYPWTPPNPMTGPPALVFNNCSEVQIGNYNSDVAPPRTTASSSAKYDQAQFGRGRGWQPFHK
notes: RIPK3, mouse, residues 409-486, same construction as the SSNMR sample, with L456D; Same construct as m1 with one substitution; source: E. coli Transetta (DE3), purified (Ni-NTA, reverse phase HPLC)
As for B2, the binding result in data set [1] is “binds”.

B3: mouse RIPK3 409-486 F442D (domain or fragment, UniProt Q9QZL0 409-486, looked up)
chain: GPHPQRNQGDGRHGTPWYPWTPPNPMTGPPALVDNNCSEVQIGNYNSLVAPPRTTASSSAKYDQAQFGRGRGWQPFHK
notes: RIPK3, mouse, residues 409-486, same construction as the SSNMR sample, with F442D; Same construct as m1 with one substitution; source: E. coli Transetta (DE3), purified (Ni-NTA, reverse phase HPLC)
Consider B3, for which the binding result in data set [2] was “binds”.
